For one molecule, IC50, Ki and Kd results are on record in US20030180744A1.

Assay [1] deals with hKGF receptor on the surface of PC-3 prostatic carcinoma cells (UniProt P21802). The assay can be described thus: competition of unlabeled hKGF with 125I-hKGF for binding to PC-3 cells.
The target in assay [2] is human KGF receptor on transfected NIH3T3 cells (NIH3T3/FGFR-2) (human) (UniProt P21802). As to the kind of experiment: competition of unlabeled hKGF with 125I-hKGF for binding to NIH3T3/FGFR-2 cells, with 1 ug/ml heparin.
Assay [3] concerns the target hKGF receptor on the surface of PC-3 prostatic carcinoma cells (UniProt P21802). The assay can be described thus: competition of unlabeled hKGF with 125I-hKGF for binding to PC-3 cells, full competition curve.
The target is the same in assay [4]. The assay can be described thus: saturation binding of 125I-hKGF on PC-3 cells, Scatchard analysis.
For assay [5] the target is unchanged. The assay can be described thus: value used to calculate Ki from IC50 in the PC-3 cell assay (FIG. 12 legend).

B1: Recombinant human Keratinocyte Growth Factor (hKGF) (ligand, UniProt P21781 32-194, looked up)
chain: CNDMTPEQMATNVNCSSPERHTRSYDYMEGGDIRVRRLFCRTQWYLRIDKRGKVKGTQEMKNNYNIMEIRTVAVGIVAIKGVESEFYLAMNKEGKLYAKKECNEDCNFKELILENHYNTYASAKWTHNGGEMFVALNQKGIPVRGKKTKKEQKTAHFLPMAIT
Consider B1, for which, in assay [1], the IC50 (usually the concentration at which inhibition is half-maximal) was determined as 70 nM. The Ki – broadly, the dissociation constant of the complex between target and ligand, obtained from inhibition or displacement – in assay [2] was 0.034 nM; in assay [3], 7.7 nM. Moreover, the Kd – broadly, a measure of binding affinity in units of concentration – in assay [4] is 0.1 to 0.2 nM; in assay [5], 0.15 nM.
